Measurements published in publication PMC11375770, “Fragment-Based Interrogation of the 14–3–3/TAZ Protein–Protein Interaction” (Biochemistry, 2024).
Where no end group is shown, it is not given here. [ ]: non-standard residue; d: D form. pS = N[C@@H](COP(=O)(O)O)C(=O)O

T1: 14-3-3ζ (Homo sapiens, UniProt P63104)
T1 construct: gene YWHAZ; with ERα-derived phosphopeptide (similar Kd with TAZpS89 peptide)
T1 sequence (P63104 1-245): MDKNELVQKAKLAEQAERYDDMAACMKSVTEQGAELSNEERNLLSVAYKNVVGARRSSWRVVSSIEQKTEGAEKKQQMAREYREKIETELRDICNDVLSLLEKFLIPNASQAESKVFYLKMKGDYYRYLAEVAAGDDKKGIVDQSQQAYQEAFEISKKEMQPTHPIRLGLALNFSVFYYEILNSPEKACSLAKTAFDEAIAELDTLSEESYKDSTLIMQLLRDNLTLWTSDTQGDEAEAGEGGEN
T1 sequence (P03372 1-595 partner): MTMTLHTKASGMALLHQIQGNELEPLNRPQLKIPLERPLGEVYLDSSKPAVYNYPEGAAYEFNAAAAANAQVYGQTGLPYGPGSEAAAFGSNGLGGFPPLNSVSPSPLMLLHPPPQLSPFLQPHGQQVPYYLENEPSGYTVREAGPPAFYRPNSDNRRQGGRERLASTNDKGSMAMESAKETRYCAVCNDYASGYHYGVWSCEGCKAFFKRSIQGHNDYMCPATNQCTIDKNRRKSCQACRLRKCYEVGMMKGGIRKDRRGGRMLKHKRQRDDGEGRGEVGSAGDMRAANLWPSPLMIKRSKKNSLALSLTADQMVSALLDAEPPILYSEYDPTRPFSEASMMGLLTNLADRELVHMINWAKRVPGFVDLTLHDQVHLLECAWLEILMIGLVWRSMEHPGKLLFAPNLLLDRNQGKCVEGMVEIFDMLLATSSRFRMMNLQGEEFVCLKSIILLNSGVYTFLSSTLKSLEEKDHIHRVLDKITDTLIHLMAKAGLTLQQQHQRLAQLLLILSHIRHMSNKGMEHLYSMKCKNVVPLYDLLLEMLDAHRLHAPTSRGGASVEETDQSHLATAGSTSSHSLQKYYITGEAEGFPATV

T2: 14-3-3ζ labelled with NT647-NHS dye (human, UniProt P63104 1-245, NT647-NHS dye (Monolith Protein Labeling Kit RED-NHS); labelled residues not stated)
T2 construct: Same construct as m1, with the fluorescent dye for MST; also called labeled 14-3-3ζ; source: E. coli BL21 (DE3), pProEX HTb plasmid, purified (Ni2+-NTA), labelled with Monolith Protein Labeling Kit RED-NHS
T2 sequence (looked up): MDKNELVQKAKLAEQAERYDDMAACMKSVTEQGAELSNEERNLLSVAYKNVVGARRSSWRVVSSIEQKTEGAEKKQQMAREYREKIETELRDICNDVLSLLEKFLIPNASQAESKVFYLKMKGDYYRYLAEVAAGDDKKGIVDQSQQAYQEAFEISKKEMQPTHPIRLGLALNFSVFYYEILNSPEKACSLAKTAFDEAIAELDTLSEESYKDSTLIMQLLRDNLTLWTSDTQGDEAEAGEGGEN

T3: 14-3-3σΔC (C-terminally truncated after T231) (human, UniProt P31947 1-231)
T3 construct: also called 14-3-3sigma
T3 sequence (looked up): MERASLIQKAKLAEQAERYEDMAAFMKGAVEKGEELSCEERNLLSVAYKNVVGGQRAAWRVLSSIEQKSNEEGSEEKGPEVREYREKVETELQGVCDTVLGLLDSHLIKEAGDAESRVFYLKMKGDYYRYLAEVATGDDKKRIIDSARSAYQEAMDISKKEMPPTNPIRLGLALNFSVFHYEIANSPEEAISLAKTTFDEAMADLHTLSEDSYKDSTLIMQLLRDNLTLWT


Columns and labels:
14-3-3ζ = target: T1, 14-3-3ζ; experiment: MST dose-response; also DSF and WaterLOGSY NMR with the TAZ peptide complex; format: binding
[1] = target: T2, 14-3-3ζ labelled with NT647-NHS dye; experiment: MST; TAZpS89 peptide titrated against a fixed concentration of NT647-labelled 14-3-3ζ; DPBS with 0.05% Tween20, 25 °C; apparent Kd; absence of fragment; settings: both partners purified
[2] = target: T2, 14-3-3ζ labelled with NT647-NHS dye; experiment: MST; TAZpS89 peptide titrated against a fixed concentration of NT647-labelled 14-3-3ζ; DPBS with 0.05% Tween20, 25 °C; apparent Kd; presence of 1 mM fragment TCF199; settings: both partners purified
[3] = target: T3, 14-3-3σΔC (C-terminally truncated after …); experiment: crystal structure; 14-3-3σΔC mixed 1:2 with the peptide, sitting drop, 0.095 M Hepes pH 7.5, PEG 400 26%, 0.19 M CaCl2, 5% glycerol; crystals soaked with 10 mM TCF199; settings: both partners purified

| Molecule | Kd (14-3-3ζ) [µM] | Kd [1] [nM] | Kd [2] [nM] | binding result [3] |
| --- | --- | --- | --- | --- |
| O=C(Nc1ccccc1)OCC12CCCCC1NCCC2 (stereo not shown) [TCF199] | 112 ± 77 |  |  |  |
| QHVRSH[pS]SPASLQ (TAZ-derived peptide surrounding phosphorylated Ser89; The methods of crystallisation say only 'the peptide'; also called TAZ-derived peptide; TAZ peptide; source: synthetic peptide (bought: Caslo, Denmark)) [TAZpS89 peptide] |  | 1380 | 40 | binds |
